The target in assay [1] is T1, human galectin-2, natively expressed (LS174T cells; human colon biopsy sections) (human, UniProt P05162 1-132).
T1 construct: Cytoplasmic protein in fixed, methanol-permeabilized LS174T cells, and native protein in frozen colon sections; also called natively expressed galectin-2 antigen
T1 sequence: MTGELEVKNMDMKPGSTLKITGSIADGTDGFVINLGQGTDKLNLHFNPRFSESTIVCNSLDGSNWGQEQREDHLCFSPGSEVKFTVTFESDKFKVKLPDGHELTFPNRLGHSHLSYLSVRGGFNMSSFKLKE
Description: immunofluorescence of frozen healthy colon sections, biotinylated IgG, streptavidin-alexa 488. The procedure:
(§1) Detection of the primary antibody was performed with streptavidin-alexa 488 (Invitrogen). Blood vessels were detected using a mouse anti-human CD31 antibody (eBioscience) followed by detection with an anti-mouse alexa 594 antibody (Invitrogen). Counterstaining for cell nuclei was performed with DAPI (eBioscience).
(§2) (i) Freshly frozen colon biopsy samples from a healthy donor were stained according to already published methods (Pfaffen et al., Eur J Nucl Med Mol Imagin (2010) 37: 1559-65). Briefly, purified biotinylated antibodies in IgG format were added at the final concentration of 2 μg/ml onto the sections. Detection of the primary antibody was performed with streptavidin-alexa 488 (Invitrogen). Blood vessels were detected using a mouse anti-human CD31 antibody (eBioscience) followed by detection with an anti-mouse alexa 594 antibody (Invitrogen). Counterstaining for cell nuclei was performed with DAPI (eBioscience).
(§3) (ii) Freshly frozen colon biopsy samples from a healthy donor were stained according to already published methods (Pfaffen et al., Eur J Nucl Med Mol Imagin (2010) 37: 1559-65). Briefly, purified biotinylated antibodies in IgG format were added at the final concentration of 2 μg/ml onto the sections. […] Blood vessels were detected using a mouse anti-human CD31 antibody (eBioscience) followed by detection with an anti-mouse alexa 594 antibody (Invitrogen). […]

Assay [2] concerns the target T2, human Agr2, native, in human colon biopsy sections (human, UniProt O95994 21-175).
T2 construct: Native protein in healthy-donor colon and ulcerative colitis sections; also called human Agr2 antigen
T2 sequence: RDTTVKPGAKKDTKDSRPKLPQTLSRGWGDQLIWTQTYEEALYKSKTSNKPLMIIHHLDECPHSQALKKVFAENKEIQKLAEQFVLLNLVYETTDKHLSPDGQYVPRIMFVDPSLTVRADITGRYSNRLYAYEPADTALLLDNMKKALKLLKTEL
The assay is described as above. As to the method: as §1, §2, §3

For assay [3], the target named is T3, human cadherin-17, native, in human ulcerative colitis biopsy sections (human, UniProt Q12864 23-832).
T3 construct: Native protein in tissue; also called cognate antigen (of AV17)
T3 sequence: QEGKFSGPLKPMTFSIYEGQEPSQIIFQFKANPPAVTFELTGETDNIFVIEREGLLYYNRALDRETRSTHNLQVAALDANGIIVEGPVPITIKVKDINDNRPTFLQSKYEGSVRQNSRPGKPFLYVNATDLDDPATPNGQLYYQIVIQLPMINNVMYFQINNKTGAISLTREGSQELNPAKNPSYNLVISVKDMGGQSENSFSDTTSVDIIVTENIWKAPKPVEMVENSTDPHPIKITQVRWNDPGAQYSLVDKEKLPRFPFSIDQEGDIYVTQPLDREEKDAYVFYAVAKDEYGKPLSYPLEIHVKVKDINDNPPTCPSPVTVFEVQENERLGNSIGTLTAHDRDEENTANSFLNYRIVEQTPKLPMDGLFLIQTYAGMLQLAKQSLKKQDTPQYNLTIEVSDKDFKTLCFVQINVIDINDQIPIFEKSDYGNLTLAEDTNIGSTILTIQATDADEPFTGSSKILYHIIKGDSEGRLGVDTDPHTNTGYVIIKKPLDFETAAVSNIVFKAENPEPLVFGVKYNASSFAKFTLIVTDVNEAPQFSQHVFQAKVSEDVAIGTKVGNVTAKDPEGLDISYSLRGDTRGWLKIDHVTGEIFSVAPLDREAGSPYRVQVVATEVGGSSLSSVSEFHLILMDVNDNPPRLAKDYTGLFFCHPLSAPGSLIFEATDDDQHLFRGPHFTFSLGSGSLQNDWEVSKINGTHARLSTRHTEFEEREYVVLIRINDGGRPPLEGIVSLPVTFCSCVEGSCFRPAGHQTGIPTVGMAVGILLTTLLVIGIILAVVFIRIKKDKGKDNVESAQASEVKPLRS
Description: immunofluorescence of frozen human ulcerative colitis sections, human IgG1 format, rabbit anti-human IgG and goat anti-rabbit Alexa 488. The procedure: Purified antibodies in human IgG1 format were added at the final concentration of 2 μg/ml to the sections. […] A positive control was performed by counterstaining for cell nuclei was performed with DAPI (eBioscience). Sections were mounted with fluorescent mounting medium (DAKO) followed by analysis using an Axioskop2 microscope with a 10× objective (Carl Zeiss AG, Jena, Germany). A stronger intensity signal in the colonic crypts region can be detected in the sections stained with CPR02, AV17 and FF06 when compared to the signal observed with an irrelevant antibody (Negative Control).
Freshly frozen human biopsy samples of Ulcerative Colitis were stained as described in the following lines. In brief, purified antibodies in human IgG1 format were added at the final concentration of 2 μg/ml to the sections. […] Further positive control was performed by counterstaining for cell nuclei was performed with DAPI (eBioscience). Sections were mounted with fluorescent mounting medium (DAKO) followed by analysis using an Axioskop2 microscope with a 10× objective (Carl Zeiss AG, Jena, Germany).

Numbering of substitutions follows the chain as printed.

B1: FF06 in IgG format (antibody, V domains shown)
VH: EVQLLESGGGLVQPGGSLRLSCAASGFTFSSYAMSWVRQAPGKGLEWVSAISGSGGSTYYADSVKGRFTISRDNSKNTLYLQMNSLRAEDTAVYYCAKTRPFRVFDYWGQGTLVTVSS
VL: SSELTQDPAVSVALGQTVRITCQGDSLRSYYASWYQQKPGQAPVLVIYGKNNRPSGIPDRFSGSSSGNTASLTITGAQAEDEADYYCNSSRSRRPAVVFGGGTKLTVLG
notes: also called anti-Galectin-2 (FF06)
Consider B1, for which the binding result in assay [1] is given as “binds”.

B2: CPR02 in IgG format (antibody, V domains shown)
VH: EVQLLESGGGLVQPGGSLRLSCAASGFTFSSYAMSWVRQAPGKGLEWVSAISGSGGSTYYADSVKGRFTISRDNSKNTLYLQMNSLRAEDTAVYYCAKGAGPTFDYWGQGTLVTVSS
VL: B1 VL with R91P, S92P, R93T, P95A, A96V
notes: also called anti-Agr2 (CPR02)
B2: in assay [2], the binding result is “binds”.

B3: AV17 in human IgG1 format (antibody, V domains shown)
VH: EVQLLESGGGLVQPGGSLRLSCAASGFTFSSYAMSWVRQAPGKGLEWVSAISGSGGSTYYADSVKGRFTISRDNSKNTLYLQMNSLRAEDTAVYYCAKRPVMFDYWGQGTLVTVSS
VL: B1 VL with R91L, S92P, R93S, R94P, P95Q, A96V
notes: Human IgG1 format; also called anti-cadherin 17 (AV17)
As for B3, the binding result in assay [3] is listed as “binds”.

The values are drawn from patent US20190309060A1 (PHILOGEN S P A, published 2019).
